Data as given in the domain aggregation screens of Martell et al. (2025).

Assay: soluble fraction after stress (log2 fold change); higher = more stays soluble; pooled small domains, quantitative proteomics
Conditions: stress: 75 degC
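Further: 20 min heating vs room temperature control held 20 min.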

Row | Sequence | soluble fraction (log2)
1 | HMAPKVHLLKVPVDKIREIIGTGGKVIRQITEETGAKIDISDDGSVKVSSPDQSSIDAATTWITGIIAE | -0.0092
2 | HMAPLATLEAGEDGSVKLPNLAGHSIREVAAALGGAKLSLIPIGSGTSWKQTPAPGAVLHSGDTVTVYF | 0.243
3 | HMAPNDELTRQVISVLSGTPQQAFNYKQISKKLNINDSSERRMVSNILRELAGKGEIVEVYQGKYRSKAPA | -0.0901
4 | HMAPPTAEFFAHLPAEALSAVRRSVEEGNARGIDEAILRVETLDGEAGRVLRGLAARYEYGRILELTQR | 0.103
5 | HMAPQSAAAILRYLSSGAIRGVGPATAQRIVERFGTDSLEIIQNRPKELAAINGISINKALSISEEYAKQY | -0.741
6 | HMAPREELIAIHEALDKLEREDPQVSQLVKLRYFVGMTMAEAADAMDLKKRAAEALWTYGKAWLHREIKKN | -3.24
7 | HMAPRIVTIQIPVDKIRDVIGPGGKVIRSIIERTGVKIDVEDDGRVNVASADGDSAQRAIAIIQELTAT | -0.101
8 | HMAPSIPSGADIRAAREAAGINLRDFARIVDGPGIAIWSRYETGTPIRVKSISPEVWQKVRDFISQHG | -0.801
9 | HMAPTADSVPFVIRSVVGGAQPFIVLEDGSKLLVGGVYRKYRLVAVENTRIIFEGPRTAIVT | -1.51
10 | HMAPTPAGNLRSLKSEIVNYTRQSSTAYVYTFKDLSSGELYTARASRYYAAAGDTAYISTAAGAITDM | 0.121
11 | HMAPTVPEVVRLEEGAARSAIEAAGLSVGSVEFRASSDPAGTVLATRPIAGRKVRPSSAVDLVLSDGRTP | 0.166
12 | HMAPVEEWAKASVMEDPTLVTETMARIFAQQGQIGKARKAYRHLALTYPAKSTYFAAQLKKLNQR | -0.473
13 | HMAPVLTATVNTTSGKLNMRAAASATSAKLTSIPRGATVTVLEKGTTWSRISYGGYTGYVMTQYLKFD | -0.523
14 | HMAPVVELEDVTIVRGKATLLDRVNWVIDETDRWVIVGPNGAGKTTLLQVVSANLHPTSGKAMILDEVL | 0.176
15 | HMAQILEPSVALKKLLELKQAGFEDETLVGWIRKVEFTRPLTPDDLLEWKGAGISQAVIRAAM | -0.302
16 | HMAQISDEGLLRGLIVEMFEANPAVVEELLGGRDRKKGFVIGQIMKKTKGMANPALLDQLFYEELEKL | -1.1
17 | HMAQTEIPYSEFLREVGNGQIKSVIIEGSEITGFYKTSGTSFNVVAPDDPKLVERLMDQGVEVRAQPT | 0.176
18 | HMAQVVMPNVVGKTEKDATATLEGKNLKVNVEYNLDATSDDGIVKEQSIKSGENIDEGTEITLKVNKV | -2.27
19 | HMAQWGFNGSEAGDLSFQQGDVIEVVEKVKDDWWRGRVLGSTEIGLFPS | -0.309
20 | HMARDDVIRLVQLSLDHLPAKYADALEWKYVEGLSTKEIAARLELGSEAAESLLARARRAFKNDFQEIFES | -1.42
21 | HMAREFPGTIIKRGSRGPDVRWIQQHIGVKLVDGVFGRGTERAVKQFQSRRRLKADGIVGRQTWAAIHN | -1.16
22 | HMARGATELPYSQLLDRVEAGEITTATTQGNTLLSTARDGKRYITYLPLDTMDEVVPRLDAANVEVKTER | 0.103
23 | HMARGLRPVPSVFGLDVRQATRTLYAAGFQVSIARGSDVRTRPAAGTLLRVGSTVQLEMPRMESA | -2.2
24 | HMARGTRTRAKLLAAAEVVFARYGYTEASIERITEEAGVGQGTFYLYFASKLEIFEELVDDLNR | -2.88
25 | HMARLEELSNGSIVEGLLSGEAVTVVSTKWYGSSSMEVFYKTNRGSTGSQILYREDEPSLTVLEKS | -0.831
26 | HMARPLHVDALIHLGTEIGSRVGGAHAGPHLLVAGHSPMSELVYARLLGIPTLGWMRGQLTFVNLSK | 0.0485

Row | Sequence | soluble fraction (log2)
27 | HMARSKSRQSSVLESVPGLGPSRRRNLLRHFGGLQGVVKAGVEDLMAVRGISRTLAETVYDHLHPGS | -0.735
28 | HMARTIINLPLRNSVDESYNTTVNILQANGFKEVSYNGETVWKKGTGLLTAMQYIKIEFTDTTLVVSGWVQ | ≥ 1.04
29 | HMARTLSVTVSENYANMRLDSFLFESGLYPSRSKAVKQIESGKVFVNGNEPTKKTIVVANDFIVYEEYAEE | -2.63
30 | HMARTTIATPWDKINDLLQGGLGNGDFGLIFGNPGGGKSWSLVALGGFAVKLGYNVIHYTLE | -0.0148
31 | HMASAEDDLTRRARKLLTTSSMLKTLQPDTGERLQWLPQVVRLLAEGVEAPRIVVLIRRAMESG | -1.26
32 | HMASALDFGRYVRSQYSLQEFPLILIAPLNDPHPKEVVRELFNLYLTKPITRSRLFDSLMTVLG | -0.74
33 | HMASDQGAGALREVSAFFEKHGRVPDPDAVDHDEMRLGSIWASIKSAPTDQMRLEDRFGLLD | 0.135
34 | HMASDYYTTTANLNLRSGAGTTYGSLIIIEKGDTVKLLENVNDHWVKIQYDDKIGYVAMSYLLPIE | -1.31
35 | HMASEKSEQLYQQMKLDIAGMPPDTRLPSIRALMRSYSVSQLLIDRTLGRLREEGALRKRFDGLYTYL | -2.42
36 | HMASELQQVQALLESQRYNEALILIETTIGKGASESTELLFARADVFASSGRHDEAEQAYREL | -0.145
37 | HMASELVSADEKYSGLVSYLLGRVVVVDQIDHAIALAKKYRYSLRIVTLDGELLSPGGSMTGGAFKNS | 0.169
38 | HMASEVEVPNVYGMPSSLAERELSAVGLLADYRSRTGTGQQPGTVVHVKPDAGTVVSRGSTVVLFIA | -0.334
39 | HMASFASRAEEVMTKLLANGQPRIKEVADAMHLSSRTLQRRLEREGVSFAELLDRLRKRLAHDMLAHS | -1.51
40 | HMASFGDLSGLKRTYPPQGLPDASRIADFLIARNEGDLSVEQVKALERFLFEHPDHERTARLVAATRVPA | -0.0446
41 | HMASFTDAQALEVKDLYPDWSKIPEGTHLEAGQRVRYNGNLYKVRTGQAHDKQSTWTPTDAASLFEAID | 0.185
42 | HMASIEPLKTSIRIIWYINGEKDSETLLNTPPTAANKANAQKIADMVEQQIQMGIFNRDAVFPSSPKRQ | -1.75
43 | HMASIGVGTIVRVANAVNYNGVKVKAWFNDEGYEVTELSGDRAVLKHNGDLFDAFHVSDLEA | -1.42
44 | HMASINRIENKNGKVVYRIIVSLGYDKQGKKLKKTITYNVNQTATKKQQENEALKYALDIEDKIKNGHD | -1.99
45 | HMASITLDQAKEIALTHAGQTADAVWFEKAEQDYDDGILVYELEFAAKGTEYEYEIDAQTGAIREYKWDD | 0.238
46 | HMASLSEREHDVAVLILQGKTYAEIGQAIFISPRTVEHHVASIRRRLEAKSRSDLIAKLRLTIGGTED | -2.68
47 | HMASPTKQLVLEALRASGQPMSSMELSAQIGVSRATAQRYLSTLASAGEVKIQLRYGTTGRPEQEFLAIE | -1.64
48 | HMASQFSLIVTQADAGMRLDSLLAVSGAYPSRSAAVKQIEAGKVLVNGLARSKRSIVAPGDTIVYEEIP | -0.981
49 | HMASQVERGAVVVTDQRIFFIGVSSEGIEVHGTKIFGMSEKAPLYSHMKGLKKGDSFQFNGLKYVIQDIY | -3.57
50 | HMASRKTERINRLIDVLQHATSRVPASVLSKILGIGERSVRNYVSEVNEQGQFRIDSSSGGYRLVA | -0.492
51 | HMASRTLSYSEFMSRVDSGDVTSVTLDGERIIMRTSNNQEFLSIKPEGEDISERLLAKNIEVRAEAQQ | -0.321
52 | HMASVGTHIKRLRAAKRMTQEELAEQLHVTRQAVSAWETGKALPDVEMLERIAAALDADVTEVIYGA | -0.346

Row | Sequence | soluble fraction (log2)
53 | HMATAATGIINNNYVNVRSGPATTYNIVGRLDQGSSIEILGSKNDWYQIKTKQLNGWVKNDFINLQK | -0.283
54 | HMATETELNLQLMRIIDELHTDHNTWGSRKITDYLRLQGYEINRKRIQRLMDVMDIQVVYPK | -2.07
55 | HMATEVEVPDVVGRQMALATQLLEARKLRVNVAEIYDEKTPPGQVVSQSPEAGSSVKEERVVTIYVSR | -0.154
56 | HMATGGKIYIGMNDNGKVVGVSDADKLLEDIPNKVRDVLGIIVDVNLLEENGLKYIEIDVPPYSN | -0.698
57 | HMATGIKAVDNVFGWMNLEQVAKTVGLDIPSVLRASGLPEDTPVDISIKKIPGVDDEELKDSLRQYIEKS | -0.107
58 | HMATGTVKWFNPNKGFGFIQQDDASKDVFVHSNELNGVYINEGDKVEFDVVETEKGLSAQNIKK | 0.222
59 | HMATHGRRAVIELREKIVSGELPGGTRLFEVSLAETLDISRTPVREALSRLAEEGLLDRLPNGGFVVRR | -1.18
60 | HMATIGVGSKVTLTTYVDWVGNGLLKTRDFYFVSELNGKRAVLRADSMNGAIYAAVNIDNLRI | -3.66
61 | HMATINGIEKYLSSGLIPGIGPHTAKKLVEKFGLDTLDIMQYNPDRLTEVEGIGDKKAAKISEAFQEQK | 0.00381
62 | HMATKVNSGVTVRDLAELLGLSSADLIKKLMTMGEMATLTQTLTDDSVKAIADEYDRKIEIVSAAQ | 0.536
63 | HMATLTPLGRLQLARYHAQERATLAATAERFQVSTTTVRRWVGRYHQVVAAGGRPTTADMQDRPSRP | -2.07
64 | HMATMSIDERILEIRSRAGLTQQEMADRLFVTRQAVSRWERGETVPGIDTLRLIAEAFDVRVDQILEL | -1.66
65 | HMATQMSSARRGIATDEMKQVAKDEDVTLDWLLPKIAIGSIIIPSNNVRPQKIHNVGIGKGMKTKVN | 0.195
66 | HMATTTEPTSPPAATASLEAKINWLFLIFRNKKTVTASEQKFHAEDASTVVGKETLTDDGTTMTKGETAAG | -0.0674
67 | HMATVELELKPEELRAGMILTKDLISGTGMMLLNKGVTLDNVKVEAIQRYYQLDPPLHGVFALVHGK | -1.32
68 | HMATVGENIRRYRKAQNLSAAKLAEKVGLTQGAILHYERGIRTPGISQLEKIAHALNVSPRM | -0.144
69 | HMATVPNVVGLSEEKAKSRLANNGLNVSVTTEEVSDKSKDGIVSSQTSEGDTVKQGATITITVGKYVEK | 0.111
70 | HMATYDIDALKVDLPSAKELAQFVYDKTDGLVSLDLIGKPKEEQYIVAKNALEGKKVPAEYLTGFNPY | 0.702
71 | HMATYTPYDKQGAKLWRVTAYLGMDSVTGKQRNMKKGGFKTKKEAQLYYNQVKLDFENGTLDQ | -1.36
72 | HMAVEQLKSQIGGFLKANREQSFSAQNMADGLRMNSAAGYQDVVNAMNALVRDGEAVEKDGQFSYNVN | 0.116
73 | HMAVETYRVKKSDTMQTIADRFGLSVEELLEYNQAYKTRELRARDILIIPSRKERKKLQQQKAQAAAQVVQ | -0.632
74 | HMAVGTASNLIGKDIEAYAPIDGSQSSDDTKTISGKVESVHIKDGVVYMNVKDSQSENIIEVEYGALIKVN | 0.251
75 | HMAVKPIDRLRSLMAESNVTDAELQKVVADKGHYAADAPIDSYSEKFISGWLIKYWSQILNLINADRTVL | -0.691
76 | HMAVKTEHGRIWKALPEGQDGYREDVPMFTSKSMYDGSAGIGIFLIRLYEATSDERWLKEAEEAAAHII | 0.157
77 | HMAVLEGPAGKLGIVRFEANRSFTGMGHERFSSADQAFGTKPAAVVASRLFATGQVAGVHVYGNIITVELA | 0.632
